Columns and labels:
[1] = target: T1, recombinant mature myostatin (human, UniProt O14793 267-375); test: cell-based or functional assay
T1 sequence (looked up): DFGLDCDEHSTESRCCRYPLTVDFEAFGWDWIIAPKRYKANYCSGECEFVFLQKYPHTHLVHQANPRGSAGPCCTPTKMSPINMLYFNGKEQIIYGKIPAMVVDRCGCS

[2] = target: T1, recombinant mature myostatin; test: cell-based or functional assay; remark: listed apart in the source

Which “IC50 (read off the curve)” value [1] does the source give for QGHCTRWPWMCPPY [TN8-19 peptide] here?
The value was about 20 µM.

B1: recombinant human activin receptor IIB/Fc chimera (Fc fusion, UniProt Q13705 19-134, looked up, not shown: a dimerising Fc or GST)
chain: SGRGEAETRECIYYNANWELERTNQSGLERCEGEQDKRLHCYASWRNSSGTIELVKKGCWLDDFNCYDRQECVATEENPQVYFCCCEGNFCNERFTHLPEAGGPEVTYEPPPTAPT
Which “IC50 (C2C12 pMARE-luc)” value [2] does the source give for B1 here?
The value was about 83 nM.
